No end group written: not given here.
T1: human Shank1 PDZ (652-765), GST tag removed (human, UniProt Q9Y566 652-765)
T1 sequence: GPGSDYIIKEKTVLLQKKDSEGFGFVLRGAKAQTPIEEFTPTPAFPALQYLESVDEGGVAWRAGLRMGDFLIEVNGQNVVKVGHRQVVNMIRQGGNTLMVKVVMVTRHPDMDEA

B1: human Shank1 PDZ (652-765), GST tag removed (domain or fragment)
chain: T1 sequence

What was measured:
[1] = biological target: C-terminally truncated ARAP3 peptide (human); assay: fluorescence polarisation
[2] = biological target: T1, human Shank1 PDZ (652-765), GST tag …; assay: fluorescence polarisation

Binder | fold change in affinity against ARAP3 (1414-1429) [1] [fold] | binding result [2]
B1 | 2.5 | –
FPELIQDTSTSFSTTR (also: FITC label, position not given here) [ARAP3_(1414-1429) peptide] | – | binds

From PMC8244488 (Current Research in Structural Biology, 2021)
